These results are taken from article PMC3353271.

In general, stoichiometry N refers to a count of units in the complex or per binding partner.

The experiment addresses S. cerevisiae enolase (S. cerevisiae (endogenous in strain R11258)) (UniProt P00925). Nature of the experiment: SEC. A general note: SEC sorts molecules by how far they enter the pores of the column.

On to “S. cerevisiae enolase (from UniProt P00925 1-437) (enzyme)”, for which the stoichiometry N was 2.
